Data: US20170137509A1 (AFFIRIS, published 2017)

B1: mAb 21-5-4 (antibody, V domains shown)
VH: QVTLKESGPGMLKPSQTLSLTCSFSGFSLSTSGLGIGWIRQPSGKGLEWLAHISWDDSKYYNPSLKNRLTISKDTSRNQVFLKITNVGTADSATYFCARSGGGDSDWGQGTLVTVSA
VL: ANVLTQSPAIMSASPGEKVTMTCSANSSVNSIHWYQQKSSTSPKLWIYDTSKLASGVPGRFSGSGSGDSYSLTISSMEAEDVATYYCFQGSGYPLTFGGGTKLEIKR
notes: also called 21-5-4 mAb; Monoclonal Ab 21-5-4
B2: mAb 4-4-2 (antibody, V domains shown)
VH: QVTLKESGPGILQPSQTLSLTCSFSGFSLSTYGLGVSWIRQPSGKGLEWLAHIYWDDNKRYKSSLKSRLTISKDTSSNQVFLKITSVDTADTATYYCARGTSPGVSFPYWGQGTLVTVSA
VL: DIQMTQSPASLSASVGETVTITCRASENIYSYLAWYQQKQGKSPQFLVYNAKTLAEGVPSRFSGSGSGTQFSLKINSLQPEDFGSYYCQHHYGTPLTFGAGTKLELKR
notes: also called Monoclonal Ab 4-4-2
B3: mAb 7-5-4 (antibody, V domains shown)
VH: EVQLVETGGGLVQPKGALRLSCAVSGITFNTNGMNWVRQAPGRGLEWVARVRSKDYNFATYYADSVKDRFTISRDDSQSMLYLQMNNLRTEDTAMYYCVRPDYYGSSFAYWGQGTLVSVSA
VL: DVLMTQTPLSLPVSLGDQASISCRSSQSIVHSNGNTYLEWYLQKPGQSPKLLIYKVSNRFFGVPDRFSGSGSGTDFTLKISRVEAEDLGVYYCFQGSHVPWTFGGGTKLEIKR
notes: also called Monoclonal Ab 7-5-4
B4: mAb 9-3-1 (antibody, IgG1, V domains shown)
VH: EVQLVETGGGLVQPKGALRLSCAVSGITFNTNGMNWVRQAPGRGLEWVARVRSKDYNFATYYADSVKDRFTISRDDSQSMLYLQMNNLRTEDTAMYYCVRPDYYGSSFAYWGQGTLVSVSA
VL: DVLMTQTPLSLPVSLGDQASISCRSSQSIVHSNGNTYLEWYLQKPGQSPKLLIYKVSNRFFGVPDRFSGSGSGTDFTLKISRVEAEDLGVYYCFQGSHVPWTFGGGTKLEIKR
notes: tested as a separate clone; also called mAb CMI 9-3

Assays:
[1] = biological target: T1, biotinylated peptide ligand representing ThrOpn (SPR); assay: SPR (Biacore 2000), biotinylated peptide on streptavidin chip, mAb injected at 2 ug/ml; one value printed for 'ThrOpn and MmpOpn'
[2] = biological target: T2, biotinylated peptide ligand representing MmpOpn (SPR); assay: as above
[3] = biological target: T3, matrix-metalloproteinase-truncated Opn (MmpOpn) (human, UniProt P10451 17-166, limits assumed); assay: ELISA on plates coated with recombinant human Opn, HRP anti-mouse IgG, OD 405 nm
T3 construct: Recombinant, expressed in HEK293 c18 cells; stop codon after 166 AA; also called 1-Opn-166; 6xHis-166 AA (N-terminal MMP-cleaved Opn)
Method: (§1) ELISA plates (Nunc, Cat#439454) were coated with 1 μg/ml recombinant human Opn proteins (home-made or from PeproTech, Cat#120-35 as control) in 100 mM NaHCO3 pH=9,2 and blocked with 1% BSA in 1×PBS. Bound mouse anti-human monoclonal antibodies (BioGenes, 1 μg/ml) and the mouse serum used as positive control were detected using a HRP-conjugated goat anti-mouse IgG antibody ([…], Cat#115-035-068, 0.2 μg/ml). ABTS (0.68 mM ABTS in 0.1 M citric acid, pH=4.3) and 0.1% hydrogen peroxide was used as a substrate for the horse radish peroxidase (HRP). The substrate reaction was stopped by adding 1% SDS solution to the wells. The absorbance was read at 405 nm using a microplate reader (TECAN Sunrise).

full length Opn (flOpn) = biological target: T4, full length Opn (flOpn) (human, UniProt P10451 17-314); assay: as above
T4 construct: Recombinant, expressed in HEK293 c18 cells as 'Strep-314 AA (full length Opn)-6xHis'; ELISA and Western blot also used PeproTech Cat#120-35 as control, and Western lanes 1-4 hold full length Opn proteins with different tag systems; also called Strep-314 AA (full length Opn)-6xHis; full length osteopontin; not shown: N-terminal OneStrep-tag
Method: as §1

[4] = biological target: T1, biotinylated peptide ligand …; assay: SPR (Biacore 2000), biotinylated peptide on streptavidin chip, mAb injected at 2 ug/ml
Method: (§2) Binding analyses were performed on a Biacore 2000. The different biotinylated peptide ligands representing the different Opn products were immobilized on a streptavidin chip in one flow cell respectively, with a flow rate of 30 μl/min. The fourth flow cell is a reference cell without peptide. The peptides were dissolved in a DMSO solution and further diluted in HBS buffer (0.01M Hepes, 0.1M NaCl, 0.004M EDTA, 0.05% P20, pH=7.4). After immobilization, the chips in each flow cell were saturated with 1 μM D-Biotin. As a control, an unspecific serum was injected through all cells. The flow rate of the antibodies was 30 μl/min at a concentration of 2 μg/ml, volume injected 100 μl. The dissociation time was set at 500 sec. The chips were regenerated with 60 μl of 50 mM HCl. Off-rate values and KD values were calculated using the Biocore SPR software.
(§3) In order to define the binding strength of selected mAbs against their individual targets SPR analysis was performed using peptides representing the different Opn products. […] Thus in a situation where multiple washing steps are included (e.g. in the used functional cell based adhesion assay) the antibody will be washed away from its target. […] In a more physiological situation where antibody persistence is not influenced by steps depleting the antibody, mAb 4-4-2 is expected also display functional activity.

[5] = biological target: T2, biotinylated peptide ligand …; assay: as above
Method: as §2, §3

T4 sequence (P10451 other isoform, or with tags, fused parts or gaps): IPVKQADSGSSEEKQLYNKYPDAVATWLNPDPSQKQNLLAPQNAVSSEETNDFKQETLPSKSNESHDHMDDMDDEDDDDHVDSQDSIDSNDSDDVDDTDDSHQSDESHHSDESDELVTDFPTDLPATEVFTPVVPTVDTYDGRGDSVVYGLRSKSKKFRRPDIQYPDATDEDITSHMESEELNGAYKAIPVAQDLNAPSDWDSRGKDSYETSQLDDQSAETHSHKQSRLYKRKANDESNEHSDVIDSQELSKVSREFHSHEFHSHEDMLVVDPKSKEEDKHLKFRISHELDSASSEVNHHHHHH
T3 sequence (P10451 other isoform, or with tags, fused parts or gaps limits assumed): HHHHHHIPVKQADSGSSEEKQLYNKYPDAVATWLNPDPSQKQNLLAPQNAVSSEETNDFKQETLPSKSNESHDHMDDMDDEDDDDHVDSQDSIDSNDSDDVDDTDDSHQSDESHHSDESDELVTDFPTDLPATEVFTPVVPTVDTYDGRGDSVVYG

| Binder | Kd [1] | koff [1] | Kd [2] | koff [2] | binding result [3] | binding result (full length Opn (flOpn)) | Kd [4] | koff [4] | Kd [5] | koff [5] |
| --- | --- | --- | --- | --- | --- | --- | --- | --- | --- | --- |
| B1 | 0.84 nM | 1e-05 s⁻¹ | 0.84 nM | 1e-05 s⁻¹ | – | – | – | – | – | – |
| B2 | – | – | – | – | no binding (tested: 1,00 µg/ml) | no binding (tested: 1,00 µg/ml) | 13.9 nM | 0.00279 s⁻¹ | – | – |
| B3 | – | – | – | – | – | no binding (tested: 1,00 µg/ml) | – | – | 1.12 nM | 8.89e-05 s⁻¹ |
| B4 | – | – | – | – | – | no binding (tested: 1,00 µg/ml) | – | – | 0.97 nM | 8.79e-05 s⁻¹ |
